Measured values as given in publication PMC11367481 (eBioMedicine, 2024).

Target: ACE2-Fc, recombinant protein (Sino Biological 10108-H02H) (human, UniProt Q9BYF1)
Assay: BLI

B1: BTN3A2-L-His, recombinant protein (Sino Biological 13515-H08H) (natural protein)
chain: not shown
- Kd: 92.7 ± 0.359 nM
